The values below come from patent US20070218516A1 (UNITED STATES OF AMERICA AS REPRESENTED BY THE SERCRETARY …, published 2007).

Experiment [1] concerns the target T1, botulinum neurotoxin serotype A (BoNT/A) (Clostridium botulinum, UniProt P0DPI0 2-1296). The experiment in a line: direct ELISA, […], antibody at 1.25 ug/ml. On the technique in general: ELISA stands for enzyme-linked immunosorbent assay.
The target of experiment [2] is T2, botulinum neurotoxin serotype B (BoNT/B) (Clostridium botulinum, UniProt P10844 2-1291).
T2 sequence: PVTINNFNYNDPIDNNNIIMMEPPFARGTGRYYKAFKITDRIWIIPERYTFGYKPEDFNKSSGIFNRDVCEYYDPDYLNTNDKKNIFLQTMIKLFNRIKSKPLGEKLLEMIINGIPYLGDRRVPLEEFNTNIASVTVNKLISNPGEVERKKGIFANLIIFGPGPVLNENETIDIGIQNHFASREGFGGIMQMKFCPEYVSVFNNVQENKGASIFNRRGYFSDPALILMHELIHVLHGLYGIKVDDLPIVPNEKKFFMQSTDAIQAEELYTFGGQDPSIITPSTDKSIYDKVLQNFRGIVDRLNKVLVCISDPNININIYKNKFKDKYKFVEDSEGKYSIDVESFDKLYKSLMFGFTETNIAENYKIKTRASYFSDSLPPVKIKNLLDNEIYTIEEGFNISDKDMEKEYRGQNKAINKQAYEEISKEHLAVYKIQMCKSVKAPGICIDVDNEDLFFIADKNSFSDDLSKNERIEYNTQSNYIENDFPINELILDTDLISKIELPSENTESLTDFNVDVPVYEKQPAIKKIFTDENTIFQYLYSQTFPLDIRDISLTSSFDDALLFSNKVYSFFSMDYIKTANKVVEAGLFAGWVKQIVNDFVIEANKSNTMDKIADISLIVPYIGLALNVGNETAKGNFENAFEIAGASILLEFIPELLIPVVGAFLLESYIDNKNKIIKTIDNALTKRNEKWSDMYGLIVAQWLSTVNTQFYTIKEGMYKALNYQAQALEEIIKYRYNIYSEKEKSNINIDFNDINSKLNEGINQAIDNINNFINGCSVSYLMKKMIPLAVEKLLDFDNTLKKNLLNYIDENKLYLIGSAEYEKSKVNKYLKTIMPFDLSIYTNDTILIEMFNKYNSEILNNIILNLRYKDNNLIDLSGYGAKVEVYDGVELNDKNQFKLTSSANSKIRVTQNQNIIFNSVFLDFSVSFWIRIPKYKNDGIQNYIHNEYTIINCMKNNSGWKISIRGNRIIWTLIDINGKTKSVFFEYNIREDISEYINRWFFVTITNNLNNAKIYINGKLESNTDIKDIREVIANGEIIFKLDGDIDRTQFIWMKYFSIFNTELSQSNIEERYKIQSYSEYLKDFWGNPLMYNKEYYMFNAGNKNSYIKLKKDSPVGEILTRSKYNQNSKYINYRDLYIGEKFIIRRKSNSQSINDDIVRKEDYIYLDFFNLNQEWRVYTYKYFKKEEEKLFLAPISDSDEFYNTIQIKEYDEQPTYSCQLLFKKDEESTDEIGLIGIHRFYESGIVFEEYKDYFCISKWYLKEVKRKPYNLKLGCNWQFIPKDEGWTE
In words: direct ELISA, […], antibody at 1.25 ug/ml.

Experiment [3] concerns the target T1, botulinum neurotoxin serotype A (BoNT/A). The experiment in a line: capture ELISA, antibody coated at 5.0 ug/ml.
Experiment [4] addresses T2, botulinum neurotoxin serotype B (BoNT/B). The experiment in a line: capture ELISA, antibody coated at 5.0 ug/ml.
Experiment [5] concerns the target T1, botulinum neurotoxin serotype A (BoNT/A). The experiment in a line: capture ELISA titration, antibody at 5.0 ug/ml.
Experiment [6] deals with T2, botulinum neurotoxin serotype B (BoNT/B). In words: capture ELISA titration, antibody at 5.0 ug/ml.

T1 sequence (P0DPI0 2-1296 limits assumed): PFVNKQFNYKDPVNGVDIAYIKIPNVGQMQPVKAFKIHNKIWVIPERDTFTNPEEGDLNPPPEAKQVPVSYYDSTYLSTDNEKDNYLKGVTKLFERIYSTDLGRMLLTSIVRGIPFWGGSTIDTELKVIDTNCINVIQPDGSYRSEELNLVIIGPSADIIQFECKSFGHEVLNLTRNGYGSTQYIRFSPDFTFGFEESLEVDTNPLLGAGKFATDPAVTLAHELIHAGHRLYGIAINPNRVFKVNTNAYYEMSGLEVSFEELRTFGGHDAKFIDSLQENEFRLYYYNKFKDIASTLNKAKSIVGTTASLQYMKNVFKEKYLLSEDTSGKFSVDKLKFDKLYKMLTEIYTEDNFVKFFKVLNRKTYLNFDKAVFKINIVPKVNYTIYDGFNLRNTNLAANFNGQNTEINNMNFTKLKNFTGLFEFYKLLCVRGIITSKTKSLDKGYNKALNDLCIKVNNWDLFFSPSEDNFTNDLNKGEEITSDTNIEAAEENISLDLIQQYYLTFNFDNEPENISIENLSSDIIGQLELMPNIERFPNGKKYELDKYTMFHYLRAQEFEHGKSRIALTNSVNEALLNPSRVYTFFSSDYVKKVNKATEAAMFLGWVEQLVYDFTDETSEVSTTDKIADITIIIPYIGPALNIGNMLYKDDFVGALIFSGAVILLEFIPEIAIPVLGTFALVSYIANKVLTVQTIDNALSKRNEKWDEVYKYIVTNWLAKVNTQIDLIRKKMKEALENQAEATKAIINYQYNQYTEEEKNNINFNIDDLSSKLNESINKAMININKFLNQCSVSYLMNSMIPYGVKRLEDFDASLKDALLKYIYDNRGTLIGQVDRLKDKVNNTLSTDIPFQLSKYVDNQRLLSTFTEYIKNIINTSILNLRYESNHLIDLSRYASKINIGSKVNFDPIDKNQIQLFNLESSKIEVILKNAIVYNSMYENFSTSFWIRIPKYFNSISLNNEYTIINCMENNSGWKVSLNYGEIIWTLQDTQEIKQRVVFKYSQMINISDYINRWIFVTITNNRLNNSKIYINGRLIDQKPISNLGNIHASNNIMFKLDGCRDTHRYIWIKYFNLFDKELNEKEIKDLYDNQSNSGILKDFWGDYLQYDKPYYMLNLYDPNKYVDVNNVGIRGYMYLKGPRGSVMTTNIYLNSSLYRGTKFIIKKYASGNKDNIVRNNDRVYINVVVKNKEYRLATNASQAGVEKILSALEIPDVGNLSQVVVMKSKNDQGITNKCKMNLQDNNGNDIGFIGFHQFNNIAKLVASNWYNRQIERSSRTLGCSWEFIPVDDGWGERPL

B1: rHu-BF5-A6 (antibody, V domains shown)
VH: EVQLQQSGAELVKPGASVKLSCTASGFNIKDTFMHWVKQRPEQGLEWIGRIDPANGNTEYDPKFQGKATITADTSSNTVNLQLSSLTSEDTAVYYCASGGELGFPYWGQGTLVTVSA
VL: DIQMTQSPASLSASVGETVTITCRASGNIHNYLAWYQQKQGKSPQLLVYNAKTLADGVPSRFSGSGSGTQYSLKINSLQPEDFGSYYCQHFWSTPWTFGGG
Regarding B1, the detection limit in experiment [1] came to 9.4 ng; in experiment [2] it was 11.8 ng; in experiment [3], 0.29 ng; in experiment [4], 0.35 ng. The lowest amount detected in experiment [5] turned out to be 0.3 ng; in experiment [6], 0.4 ng.

B2: rHu-BF5-B1 (antibody, V domains shown)
VH: EVQLQQSGAELVKPGASVKLSCTASGFNIKDTFMHWVKQRPEQGLEWIGRIDPANGNTEYDPKFQGKATITADTSSNTVNLQLSSLTSEDTAVYYCASGGELGFPYWGQGTLVTVSA
VL: DIQMTQSPASLSASVGETVTITCRASGNIHNYLAWYQQKQGKSPQLLVYNAKTLADGVPSRFSGSGSGTQYSLKINSLQPEDFGSYYCQHFWSTPWTFGGG
In the case of B2, the detection limit in experiment [1] was determined as 9.4 ng; in experiment [2], 11.8 ng; in experiment [3] it was 0.29 ng; in experiment [4], 0.35 ng. Moreover, the lowest amount detected was determined as 0.3 ng in experiment [5] and 0.4 ng in experiment [6].
